Assay [1] concerns the target T1, apical domain of human CD71 (human, UniProt P02786 189-383, limits assumed).
T1 construct: domain: apical domain; Screen 4 panned on human apical domains, the ELISA text says only 'apical domain'
Briefly: primary ELISA. Also: test concentration or dose not given here.

The target in assay [2] is T2, human CD71 extracellular domain (human, UniProt P02786 89-760, biotinylated).
T2 construct: also called hCD71; CD71-ECD
Briefly: primary ELISA. Also: test concentration or dose not given here.

The target of assay [3] is T1, apical domain of human CD71. Briefly: primary ELISA, RLU over HSA.
Assay [4] deals with T2, human CD71 extracellular domain. The assay can be described thus: primary ELISA, RLU over HSA.

T1 sequence (P02786 189-383 limits assumed): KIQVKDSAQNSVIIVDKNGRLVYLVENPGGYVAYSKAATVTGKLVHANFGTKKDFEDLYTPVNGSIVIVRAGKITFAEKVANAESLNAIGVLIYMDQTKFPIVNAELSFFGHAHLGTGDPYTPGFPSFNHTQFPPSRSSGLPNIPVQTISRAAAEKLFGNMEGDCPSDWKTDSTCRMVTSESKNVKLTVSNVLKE
T2 sequence (P02786 89-760): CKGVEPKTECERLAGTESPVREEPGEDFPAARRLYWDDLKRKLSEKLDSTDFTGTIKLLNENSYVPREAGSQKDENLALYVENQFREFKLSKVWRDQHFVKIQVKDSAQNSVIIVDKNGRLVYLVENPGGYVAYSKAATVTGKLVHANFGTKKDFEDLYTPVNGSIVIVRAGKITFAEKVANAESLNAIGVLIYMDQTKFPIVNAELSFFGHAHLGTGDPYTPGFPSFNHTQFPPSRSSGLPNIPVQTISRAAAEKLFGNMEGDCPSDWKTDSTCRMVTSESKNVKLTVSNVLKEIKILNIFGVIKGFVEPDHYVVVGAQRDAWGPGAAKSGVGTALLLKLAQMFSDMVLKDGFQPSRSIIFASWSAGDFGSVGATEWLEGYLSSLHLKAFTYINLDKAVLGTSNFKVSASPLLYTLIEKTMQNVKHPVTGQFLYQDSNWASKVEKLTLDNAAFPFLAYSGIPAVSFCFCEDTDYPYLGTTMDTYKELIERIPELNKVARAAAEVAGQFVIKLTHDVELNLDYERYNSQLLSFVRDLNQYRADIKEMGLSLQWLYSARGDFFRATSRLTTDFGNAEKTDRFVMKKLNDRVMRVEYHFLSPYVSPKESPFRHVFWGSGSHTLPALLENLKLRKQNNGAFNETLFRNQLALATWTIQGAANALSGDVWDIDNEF

B1: CD71-binding FN3 domain of SEQ ID NO: 462 (designed binder)
chain: MLPAPKNLVVSRVTEDSARLSWTAPDAAFDSFFIGYLEPQPPGEAIHLQVPGSERSYDLTGLKPGTEYNVTIQGVKGGFPSVPLHARFTT
In the case of B1, the RLU in assay [1] is 3.28e+06 RLU; in assay [2], 2.83e+06 RLU. The “Apical domain:HSA” value in assay [3] is 88. In addition, the “hCD71:HSA” value in assay [4] was found to be 76.

B2: CD71-binding FN3 domain of SEQ ID NO: 479 (designed binder)
chain: MLPAPKNLVVSRVTEDSARLSWTAPDAAFDSFFIGYLEPQPPGEAINLWVPGSERSYDLTGLKPGTEYNVTIQGVKGGFPSTPLFAGFTT
For B2, the figures for the RLU in assay [1] and in assay [2] were 4.83e+06 RLU and 2.66e+06 RLU, respectively. In addition, the “Apical domain:HSA” value in assay [3] came out at 373. Further, in assay [4], the “hCD71:HSA” value turned out to be 206.

B3: CD71-binding FN3 domain of SEQ ID NO: 464 (designed binder)
chain: MLPAPKNLVVSRVTEDSARLSWTAPDAAFDSFFIGYLEPQPPGEAIQLFVPGSERSYDLTGLKPGTEYNVTIQGVKGGFPSTPLVASFTT
Take B3: the RLU in assay [1] is 5.68e+06 RLU; in assay [2], 4.94e+06 RLU. Further, the “Apical domain:HSA” value in assay [3] came to 160. Also, the “hCD71:HSA” value in assay [4] amounted to 140.

B4: CD71-binding FN3 domain of SEQ ID NO: 469 (designed binder)
chain: MLPAPKNLVVSRVTEDSARLSWTAPDAAFDSFFIGYLEPQPPGEAIHLYVPGSERSYDLTGLKPGTEYNVTIQGVKGGFPSLPLVATFTT
With B4, the RLU in assay [1] came out at 5.56e+06 RLU; in assay [2], 5.4e+06 RLU. The “Apical domain:HSA” value in assay [3] stood at 75. The “hCD71:HSA” value in assay [4] was 73.

B5: CD71-binding FN3 domain of SEQ ID NO: 482 (designed binder)
chain: MLPAPKNLIVSRVTEDSARLSWTAPDAAFDSFFIGYLEPQPPGEAIHLQVPGSERSYDLTGLKPGTEYNVTIQGVKGGFPSNPLHAEFTT
With B5, the RLU in assay [1] amounted to 2.66e+06 RLU; in assay [2], 2.23e+06 RLU. Further, the “Apical domain:HSA” value in assay [3] came to 295. In addition, the “hCD71:HSA” value in assay [4] worked out at 247.

B6: CD71-binding FN3 domain of SEQ ID NO: 487 (designed binder)
chain: MLPAPKNLVVSRVTEDSARLSWTAPDAAFDSFFIGYLEPQPPGEAIGLRVPGSERSYDLTGLKPGTEYNVTIQGVKGGFPSEPLIADFTT
On to B6, for which the RLU came out at 3.43e+06 RLU in assay [1] and 2.27e+06 RLU in assay [2]. In addition, the “Apical domain:HSA” value in assay [3] worked out at 220. Besides, the “hCD71:HSA” value in assay [4] was 146.

B7: CD71-binding FN3 domain of SEQ ID NO: 493 (designed binder)
chain: MLPAPKNLVVSRVTEDSARLSWTAPDAAFDSFFIGYLEPQPPGEAILLAVPGSERSYDLTGLKPGTEYNVTIQGVKGGFPSLPLVAHFTT
B7: the RLU is 2.5e+06 RLU in assay [1] and 2.75e+06 RLU in assay [2]. Further, in assay [3], the “Apical domain:HSA” value turned out to be 172. For the same molecule, in assay [4], the “hCD71:HSA” value was 190.

B8: CD71-binding FN3 domain of SEQ ID NO: 483 (designed binder)
chain: MLPAPKNLVVSRVTEDSARLSWTAPDAAFDSFFIGYLEPQPPGEAITLVVPGSERSYDLTGLKPGTEYNVTIQGVKGGFPSDPLVASFTT
On to B8, for which the results for the RLU in assay [1] and in assay [2] were 3.47e+06 RLU and 3.05e+06 RLU, respectively. Further, the “Apical domain:HSA” value in assay [3] was 154. In assay [4], the “hCD71:HSA” value was 136.

B9: CD71-binding FN3 domain of SEQ ID NO: 478 (designed binder)
chain: MLPAPKNLVVSRVTEDSARLSWTAPDAAFDSFFIGYLEPQPPGEAIHLYVPGSERSYDLTGLKPGTEYNVTIQGVKGGFPSVPLIAKFTT
B9: the RLU stood at 5.9e+06 RLU in assay [1] and 5.39e+06 RLU in assay [2]. For the same molecule, the “Apical domain:HSA” value in assay [3] stood at 61. The “hCD71:HSA” value in assay [4] is 56.

B10: CD71-binding FN3 domain of SEQ ID NO: 490 (designed binder)
chain: MLPAPKNLVVSRVTEDSARLSWTAPDAAFDSFFIGYLEPQPPGEAISLQVPGSERSYDLTGLKPGTEYNVTIQGVKGGFPSAPLVANFTT
B10: the RLU was found to be 2.9e+06 RLU in assay [1] and 4.15e+06 RLU in assay [2]. For the same molecule, the “Apical domain:HSA” value in assay [3] was found to be 281. The “hCD71:HSA” value in assay [4] worked out at 403.

B11: CD71-binding FN3 domain of SEQ ID NO: 472 (designed binder)
chain: MLPAPKNLVVSRVTEDSARLSWTAPDAAFDSFFIGYLEPQPPGEAIELYVPGSERSYDLTGLKPGTEYNVTIQGVKGGFPSLPLVATFTT
As for B11, the RLU in assay [1] was found to be 4.97e+06 RLU; in assay [2] it was 4.52e+06 RLU. For the same molecule, the “Apical domain:HSA” value in assay [3] was 178. Moreover, in assay [4], the “hCD71:HSA” value is 162.

B12: CD71-binding FN3 domain of SEQ ID NO: 497 (designed binder)
chain: MLPAPKNLVVSRVTEDSARLSWTAPDAAFDSFFIGYLEPQPPGEAITLLVPGSERSYDLTGLKPGTEYNVTIQGVKGGFPSKPLYAYFTT
In the case of B12, the RLU in assay [1] is 4.58e+06 RLU; in assay [2], 2.93e+06 RLU. Moreover, the “Apical domain:HSA” value in assay [3] was found to be 358. Further, the “hCD71:HSA” value in assay [4] came out at 229.

B13: CD71-binding FN3 domain of SEQ ID NO: 474 (designed binder)
chain: MLPAPKNLVVSRVTEDSARLSWTAPDAAFDSFFIGYLEPQPPGEAIGLAVPGSERSYDLTGLKPGTEYNVTIQGVKGGFPSEPLIADFTT
Take B13: the figures for the RLU in assay [1] and in assay [2] were 2.72e+06 RLU and 3.04e+06 RLU, respectively. In assay [3], the “Apical domain:HSA” value was 279. For the same molecule, the “hCD71:HSA” value in assay [4] stood at 312.

B14: CD71-binding FN3 domain of SEQ ID NO: 486 (designed binder)
chain: MLPAPENLVVSRVTEDSARLSWTALDAAFDSFFIGYLEPQPPGEAISLLVPGSERSYDLTGLKPGTEYNVTIQGVKGGIASEPLSAAFTT
For the molecule B14, the RLU in assay [1] came to 1.98e+06 RLU; in assay [2] it was 1.75e+06 RLU. In addition, the “Apical domain:HSA” value in assay [3] was determined as 335. In assay [4], the “hCD71:HSA” value is 297.

B15: CD71-binding FN3 domain of SEQ ID NO: 470 (designed binder)
chain: MLPAPKNLVVSRVTEDSARLSWTAPDAAFDSFFIGYLEPQPPGEAITLLVPGSERSYDLTGLKPGTEYNVTIQGVKGGFPSMPLSAIFTT
In the case of B15, the RLU turned out to be 4.74e+06 RLU in assay [1] and 2.47e+06 RLU in assay [2]. In assay [3], the “Apical domain:HSA” value turned out to be 152. In assay [4], the “hCD71:HSA” value was 79.

B16: CD71-binding FN3 domain of SEQ ID NO: 476 (designed binder)
chain: MLPAPKNLVVSRVTEDSARLSWTAPDAAFDSFFIGYLEPQPPGEAIHLQVPGSERSYDLTGLKPGTEYNVTIQGVKGGFPSIPLIAVFTT
Regarding B16, the RLU in assay [1] turned out to be 3.4e+06 RLU; in assay [2] it was 4.15e+06 RLU. Further, the “Apical domain:HSA” value in assay [3] was 215. Moreover, the “hCD71:HSA” value in assay [4] was 262.

B17: CD71-binding FN3 domain of SEQ ID NO: 465 (designed binder)
chain: MLPAPKNLVVSRVTEDSARLSWTAPDAAFDSFFIGYLEPQPPGEAIDLYVPGSERSYDLTGLKPGTEYNVTIQGVKGGFPSEPLWADFTT
Consider B17, for which the figures for the RLU in assay [1] and in assay [2] were 4.15e+06 RLU and 3.86e+06 RLU, respectively. In assay [3], the “Apical domain:HSA” value came out at 138. In addition, the “hCD71:HSA” value in assay [4] was determined as 129.

B18: CD71-binding FN3 domain of SEQ ID NO: 475 (designed binder)
chain: MLPAPKNLVVSRVTEDSARLSWTAPDAAFDSFFIGYLEPQPPGEAITLYVPGSERSYDLTGLKPGTEYNVTIQGVKGGFPSIPLSAEFTT
In the case of B18, the RLU is 3.21e+06 RLU in assay [1] and 3.46e+06 RLU in assay [2]. Moreover, in assay [3], the “Apical domain:HSA” value turned out to be 94. Besides, in assay [4], the “hCD71:HSA” value came out at 101.

B19: CD71-binding FN3 domain of SEQ ID NO: 481 (designed binder)
chain: MLPAPKNLVVSRVTEDSARLSWTAPDAAFDSFFIGYLEPQPPGEAITLYVPGSERSYDMTGLKPGTEYNVTIQGVKGGFPSLPLQAHFTT
As for B19, the RLU in assay [1] came out at 3.65e+06 RLU; in assay [2], 3.71e+06 RLU. For the same molecule, in assay [3], the “Apical domain:HSA” value came out at 803. For the same molecule, the “hCD71:HSA” value in assay [4] is 816.

B20: CD71-binding FN3 domain of SEQ ID NO: 467 (designed binder)
chain: MLPAPKNLVVSRVTEDSARLSWTAPDAAFDSFFIGYLEPQPPGEAIQLLVPGSERSYDLTGLKPGTEYNVTIQGVKGGFPSDPLVAYSTT
In the case of B20, the figures for the RLU in assay [1] and in assay [2] were 2e+06 RLU and 1.18e+06 RLU, respectively. The “Apical domain:HSA” value in assay [3] came to 45. Besides, the “hCD71:HSA” value in assay [4] was 27.

B21: CD71-binding FN3 domain of SEQ ID NO: 496 (designed binder)
chain: MLPAPKNLVVSRVTEDSARLSWTAPDAAFDSFFIGYLEPQPPGEAIILWVPGSERSYDLTGLKPGTEYNVTIQGVKGGFPSVPLIAQFTT
On to B21, for which the RLU amounted to 5.66e+06 RLU in assay [1] and 5.27e+06 RLU in assay [2]. The “Apical domain:HSA” value in assay [3] came out at 47. The “hCD71:HSA” value in assay [4] came to 43.

B22: CD71-binding FN3 domain of SEQ ID NO: 473 (designed binder)
chain: MLPAPKNLVVSRVTEDSARLSWTAPDAAFDSFFIGYLEPQPPGEAIDLWVPGSERSYDLTGLKPGTEYNVTIQGVKGGFPSLPLSASFTT
As to B22, the results for the RLU in assay [1] and in assay [2] were 3.03e+06 RLU and 2.91e+06 RLU, respectively. Further, the “Apical domain:HSA” value in assay [3] is 91. The “hCD71:HSA” value in assay [4] stood at 88.

B23: CD71-binding FN3 domain of SEQ ID NO: 485 (designed binder)
chain: MLPAPKNLVVSRVTEDSARLSWTAPDAAFDSFFIGYLEPQPPGEAIHLWVPGSERSYDLTGLKPGTEYNVTIQGVKGGFPSLPLLAKFTT
As for B23, the RLU in assay [1] was found to be 3.23e+06 RLU; in assay [2], 2.47e+06 RLU. Also, the “Apical domain:HSA” value in assay [3] amounted to 86. The “hCD71:HSA” value in assay [4] turned out to be 66.

B24: CD71-binding FN3 domain of SEQ ID NO: 494 (designed binder)
chain: MLPAPKNLVVSRVTEDSARLSWTTPDAAFDSFFIGYLEPQPPGEAISLYVPGSERSYDLTGLKPGTEYNVTIQGVKGGFPSMPLSAIFTT
As for B24, the results for the RLU in assay [1] and in assay [2] were 3.32e+06 RLU and 3.2e+06 RLU, respectively. Moreover, the “Apical domain:HSA” value in assay [3] amounted to 369. For the same molecule, the “hCD71:HSA” value in assay [4] worked out at 356.

B25: CD71-binding FN3 domain of SEQ ID NO: 491 (designed binder)
chain: MLPAPKNLVVSRVTEDSARLSWTAPDAAFDSFFIGYLEPQPSGEAIHLIVPGSERSYDLTGLKPGTEYNVTIQGVKGGFPSDPLVASFTT
Regarding B25, the RLU in assay [1] is 5.07e+06 RLU; in assay [2], 4.66e+06 RLU. Besides, in assay [3], the “Apical domain:HSA” value turned out to be 288. In addition, the “hCD71:HSA” value in assay [4] was determined as 265.

The values are drawn from patent US20260151494A1 (ARO BIOTHERAPEUTICS, published 2026).
